From US20160039913A1 (LFB USA, published 2016)

B1: b12 IgA2 purified from CHO cells (antibody, V domains shown)
VH: QVQLVQSGAEVKKPGASVKVSCQASGYRFSNFVIHWVRQAPGQRFEWMGWINPYNGNKEFSAKFQDRVTFTADTSANTAYMELRSLRSADTAVYYCARVGPYSWDDSPQDNYYMDVWGQGTTVIVSS
VL: EIVLTQAPGTLSLSPGERATFSCRSSHSIRSRRVAWYQHKPGQAPRLVIHGVSNRASGISDRFSGSGSGTDFTLTITRVEPEDFALYYCQVYGASSYTFGQGTKLERKR
B2: b12 IgA2 purified from milk (antibody, V domains shown)
VH: B1 VH
VL: B1 VL
B3: b12 IgA2 expressed in milk (antibody, V domains shown)
VH: B1 VH
VL: B1 VL
B4: F425-A1g8 IgG1 antibody variant (antibody, V domains shown)
VH: QEQLVESGGGVVQPGRSLRLSCEASGFIFSAFVLHWVRQAPGKGLEWVAVVWYDGNSKYYADSVKGRFTISRDTSQNTLHLQMDSLRPEDTAVYYCAREWVADDDTFDGFDVWGQGTMVTVSS
VL: EIVLSQSPATLSLSPGERATLSCRASQSVTNSLAWYQQKPGQAPRLLIYDASNRATGIPARFSGSGSGTDFTLTISSLEPEDFAVYYCQQRSNWPPEVTFGPGTKVDIKR
B5: F425-A1g8 IgA1 antibody variant (antibody)
heavy: QEQLVESGGGVVQPGRSLRLSCEASGFIFSAFVLHWVRQAPGKGLEWVAVVWYDGNSKYYADSVKGRFTISRDTSQNTLHLQMDSLRPEDTAVYYCAREWVADDDTFDGFDVWGQGTMVTVSSASLTSPKVFPLSLCSTQPDGNVVIACLVQGFFPQEPLSVTWSESGQGVTARNFPPSQDASGDLYTTSSQLTLPATQCLAGKSVTCHVKHYTNPSQDVTVPCPVPSTPPTPSPSTPPTPSPSCCHPRLSLHRPALEDLLLGSEANLTCTLTGLRDASGVTFTWTPSSGKSAVQGPPDRDLCGCYSVSSVLSGCAEPWNHGKTFTCTAAYPESKTPLTATLSKSGNTFRPEVHLLPPPSEELALNELVTLTCLARGFSPKDVLVRWLQGSQELPREKYLTWASRQEPSQGTTTFAVTSILRVAAEDWKKGDTFSCMVGHEALPLAFTQKTIDRLAGKPTHVNVSVVMAEVDGTCY
light: not shown

Experiments:
Assay in all cases: cell-based or functional assay
HIV-1 SF162 gp120 [1] = target: T1, HIV-1 SF162 gp120 (HIV-1, isolate SF162, UniProt P19550 32-502); design: unit not given beside the values
HIV-1 89.6 gp120 [2] = target: T2, HIV-1 89.6 gp120 (HIV-1, isolate 89.6, UniProt Q73372 32-508); design: unit not given beside the values
HIV-1 SF162 gp120 [3] = target: T1, HIV-1 SF162 gp120
HIV-1 JR-FL gp120 [4] = target: T3, HIV-1 JR-FL gp120 (HIV-1, isolate JR-FL)
HIV-1 89.6 gp120 [5] = target: T2, HIV-1 89.6 gp120
HIV-1 93MW960 gp120 [6] = target: T4, HIV-1 93MW960 gp120 (HIV-1, isolate 93MW960)
HIV-1 BaL gp120 [7] = target: T5, HIV-1 BaL gp120 (HIV-1, isolate BaL)
HIV-1 JR-FL gp120 [8] = target: T3, HIV-1 JR-FL gp120; remark: listed apart in the source
HIV-1 67970 gp120 = HIV-1 67970 gp120 (HIV-1, isolate 67970)
HIV-1 SF162 gp120 [9] = target: T1, HIV-1 SF162 gp120; remark: listed apart in the source
HIV-1 JR-FL gp120 [10] = target: T3, HIV-1 JR-FL gp120; remark: listed apart in the source
HIV-1 89.6 gp120 [11] = target: T2, HIV-1 89.6 gp120; remark: listed apart in the source
HIV-1 93MW960 gp120 [12] = target: T4, HIV-1 93MW960 gp120; remark: listed apart in the source
HIV-1 BaL gp120 [13] = target: T5, HIV-1 BaL gp120; remark: listed apart in the source

| Binder | IC90, neutralization of HIV SF162 (TZM-bl assay) (HIV-1 SF162 gp120 [1]) | IC90, neutralization of HIV 89.6 (TZM-bl assay) (HIV-1 89.6 gp120 [2]) | IC50, ADCVI assay with PMN (+ PMN), SF162-infected PBMC (HIV-1 SF162 gp120 [3]) | IC50, ADCVI assay without PMN (- PMN), SF162-infected PBMC (HIV-1 SF162 gp120 [3]) | IC50, ADCVI assay with PMN (+ PMN), JR-FL-infected PBMC (HIV-1 JR-FL gp120 [4]) | IC50, ADCVI assay without PMN (- PMN), JR-FL-infected PBMC (HIV-1 JR-FL gp120 [4]) | IC50, ADCVI assay with PMN (+ PMN), 89.6-infected PBMC (HIV-1 89.6 gp120 [5]) | IC50, ADCVI assay without PMN (- PMN), 89.6-infected PBMC (HIV-1 89.6 gp120 [5]) | IC50, ADCVI assay with PMN (+ PMN), 93MW960-infected PBMC (HIV-1 93MW960 gp120 [6]) | IC50, ADCVI assay without PMN (- PMN), 93MW960-infected PBMC (HIV-1 93MW960 gp120 [6]) | IC50, ADCVI assay with PMN (+ PMN), BaL-infected PBMC (HIV-1 BaL gp120 [7]) | IC50, ADCVI assay without PMN (- PMN), BaL-infected PBMC (HIV-1 BaL gp120 [7]) | IC50, neutralization of HIV-1 JR-FL (TZM-bl cells, no sCD4) (HIV-1 JR-FL gp120 [8]) | IC50, neutralization of HIV-1 67970 (TZM-bl cells, no sCD4) (HIV-1 67970 gp120) | IC50, ADCVI with neutrophils, SF162-infected PBMC (HIV-1 SF162 gp120 [9]) | IC50, ADCVI with neutrophils, JR-FL-infected PBMC (HIV-1 JR-FL gp120 [10]) | IC50, ADCVI with neutrophils, 89.6-infected PBMC (HIV-1 89.6 gp120 [11]) | IC50, ADCVI with neutrophils, 93MW960-infected PBMC (HIV-1 93MW960 gp120 [12]) | IC50, ADCVI with neutrophils, BaL-infected PBMC (HIV-1 BaL gp120 [13]) |
| --- | --- | --- | --- | --- | --- | --- | --- | --- | --- | --- | --- | --- | --- | --- | --- | --- | --- | --- | --- |
| B1 | 1.03 | 6.75 | 0.3 µg/mL | 9.5 µg/mL | > 20 µg/mL | > 20 µg/mL | 14.5 µg/mL | > 20 µg/mL | 10 µg/mL | > 20 µg/mL | 2.1 µg/mL | > 20 µg/mL | – | – | – | – | – | – | – |
| B2 | 0.79 | 8.37 | 0.3 µg/mL | 2.1 µg/mL | > 20 µg/mL | > 20 µg/mL | 17.1 µg/mL | > 20 µg/mL | 17.5 µg/mL | > 20 µg/mL | 2.2 µg/mL | 13.1 µg/mL | – | – | – | – | – | – | – |
| B3 | 0.34 | 1.85 | 0.4 µg/mL | 6.6 µg/mL | – | 9.6 µg/mL | 3.9 µg/mL | 4.8 µg/mL | 3.3 µg/mL | > 20 µg/mL | 2.3 µg/mL | 19.3 µg/mL | – | – | – | – | – | – | – |
| B4 | – | – | – | – | – | – | – | – | – | – | – | – | > 40 µg/mL | > 40 µg/mL | > 40 µg/mL | > 40 µg/mL | > 40 µg/mL | 9.5 µg/mL | > 40 µg/mL |
| B5 | – | – | – | – | – | – | – | – | – | – | – | – | 1.73 µg/mL | 23.3 µg/mL | 6.1 µg/mL | 16.6 µg/mL | > 40 µg/mL | 18.3 µg/mL | > 40 µg/mL |
